Patent US20030207391A1 (published 2003)

B1: FLT-1 Domain 4 Construct 0 (residues 338-440), His-tagged (receptor)
chain: HRKQQVLETVAGKRSYRLSMKVKAFPSPEVVWLKDGLPATEKSARYLTRGYSLIIKDVTEEDAGNYTILLSIKQSNVFKNLTATLIVNVKPQIYEKAVSSFPD
notes: probably a printing error; also called sFLT-1 Dom; 4 (construct 0); His-Tagged Domain 4 (Construct 0); not shown: histidine tag from the E. coli expression vector
B2: FLT-1 Domain 4 Construct 1 (residues 330-429), His-tagged (receptor)
chain: DKAFITVKHRKQQVLETVAGKRSYRLSMKVKAFPSPEVVWLKDGLPATEKSARYLTRGYSLIIKDVTEEDAGNYTILLSIKQSNVFKNLTATLIVNVKPQ
notes: not shown: histidine tag from the E. coli expression vector
B3: FLT-1 Domain 4 Construct 2 (residues 330-440), His-tagged (receptor)
chain: DKAFITVKHRKQQVLETVAGKRSYRLSMKVKAFPSPEVVWLKDGLPATEKSARYLTRGYSLIIKDVTEEDAGNYTILLSIKQSNVFKNLTATLIVNVKPQIYEKAVSSFPD
notes: as for B2

Each binder was assayed against T1, soluble FLT-1 (sFLT-1) (Homo sapiens, UniProt P17948-2 27-687, limits assumed) (assay: BIAcore; 50 nM sFLT-1 pre-incubated overnight with 50 µg/ml construct, passed over immobilised mAb 2B2).
T1 construct: the whole FLT-1 entry is named
Method: Binding of Domain 4 on sFLT-1 is determined using Biomolecular Interaction Analysis (Biacore). (Fisher R. J. and Fivash, M. (1994) Curr. Opin. Biotech. 5, 389-395).
A monoclonal antibody (2B2) specific to Domains 1 to 3 of sFLT-1, but not Domain 4, was immobilized on the sensor chip at a concentration of 30 μg/ml in 10 mM NaAc, pH 5. 50 μg/ml of the four Domain 4 constructs in 20 mM Tris-HCl, pH 7.4 were individually pre-incubated overnight at 4° C. with 50 nM sFLT-1 in HEPES buffer (O.O1M Hepes,pH 7.4, 0.15M NaCl, 3 mM EDTA, 0.005% polysorbate 20 (v/v)). Thereafter the pre-incubated suspensions were passed across the immobilized monoclonal antibody and binding monitored by mass sensitive detection, measured in response units (RU). […] A further control was also run whereby the four Domain 4 constructs, which have not been pre-incubated with sFLT-1, were passed over the immobilized monoclonal antibody. After each run the sensor chip was regenerated in 10 mM Glycine pH 1.75 buffer ready for the next experiment.

T1 sequence (P17948 other isoform, or with tags, fused parts or gaps limits assumed): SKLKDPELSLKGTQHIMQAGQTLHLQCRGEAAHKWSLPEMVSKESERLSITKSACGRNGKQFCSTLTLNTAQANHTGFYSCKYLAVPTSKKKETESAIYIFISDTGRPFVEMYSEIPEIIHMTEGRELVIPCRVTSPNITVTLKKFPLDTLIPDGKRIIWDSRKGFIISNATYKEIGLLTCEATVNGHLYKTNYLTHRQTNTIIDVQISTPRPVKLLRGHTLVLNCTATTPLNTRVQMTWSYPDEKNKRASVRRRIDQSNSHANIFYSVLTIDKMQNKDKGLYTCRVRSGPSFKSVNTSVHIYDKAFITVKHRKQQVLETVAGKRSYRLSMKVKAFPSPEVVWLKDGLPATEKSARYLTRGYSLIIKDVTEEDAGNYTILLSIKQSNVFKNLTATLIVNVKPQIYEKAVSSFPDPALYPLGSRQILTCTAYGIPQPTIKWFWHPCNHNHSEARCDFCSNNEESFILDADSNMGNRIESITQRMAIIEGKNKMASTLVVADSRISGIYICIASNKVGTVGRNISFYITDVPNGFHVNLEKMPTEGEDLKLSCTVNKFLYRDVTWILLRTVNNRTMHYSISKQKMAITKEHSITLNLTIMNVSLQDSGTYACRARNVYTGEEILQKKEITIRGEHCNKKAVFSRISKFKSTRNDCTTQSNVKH

% inhibition of sFLT-1	Binder
5.85%	B1
64.7%	B2
73.3%	B3
